Source: paper PMC7942993
Residue numbers refer to the chain shown, from its start.

Assays:
Experiment in all cases: EMSA
Settings in all cases: EMSA: 40 mM HEPES pH 7.9, 300 mM KCl, 10% glycerol, 8% Ficoll, 2 mM EDTA, 0.2 mM MgCl2, 1 mM DTT, 600 ug BSA, 30 ug poly(dI-dC), 30 ul, 20 min, room …
[1] = biological target: T1, His-TRF1 T273D T273D (Homo sapiens) (UniProt P54274)
T1 sequence: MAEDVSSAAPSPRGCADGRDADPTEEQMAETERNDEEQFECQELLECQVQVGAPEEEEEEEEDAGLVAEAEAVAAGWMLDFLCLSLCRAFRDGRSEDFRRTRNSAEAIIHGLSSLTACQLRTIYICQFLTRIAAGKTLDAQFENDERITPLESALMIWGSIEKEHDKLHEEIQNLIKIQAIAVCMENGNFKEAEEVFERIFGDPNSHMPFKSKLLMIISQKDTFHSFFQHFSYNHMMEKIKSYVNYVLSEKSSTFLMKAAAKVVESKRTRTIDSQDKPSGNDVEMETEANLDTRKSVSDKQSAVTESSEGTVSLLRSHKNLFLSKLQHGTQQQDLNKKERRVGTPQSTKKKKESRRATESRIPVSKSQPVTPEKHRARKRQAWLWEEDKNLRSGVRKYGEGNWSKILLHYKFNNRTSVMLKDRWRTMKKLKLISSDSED

[2] = biological target: T2, His-TRF1 T358D T358D (Homo sapiens) (UniProt P54274)
T2 sequence: T1 sequence with D273T, T358D

[3] = biological target: T3, His-TRF1 WT (Homo sapiens) (UniProt P54274)
T3 sequence: T1 sequence with D273T

In the case of “GGGTTAGGGTTAGGGTTAGGGTTAGGGTTAGGGTTAGGGTTAGGGCCCCTC (double strand) [ds (TTAGGG)7 telomeric probe]”, the binding signal [1] is reported as > 1 fold of WT, the binding signal [2] is reported as > 1 fold of WT and the binding signal (fold of WT (reference)) [3] is reported as 1.
